Values of other authors, collected in PMC4752257.
pKd: −log10 of the molar value.

Target: IL-4R alpha (Homo sapiens) (UniProt P24394)
Sequence of UniProt P24394 (P24394 26-232): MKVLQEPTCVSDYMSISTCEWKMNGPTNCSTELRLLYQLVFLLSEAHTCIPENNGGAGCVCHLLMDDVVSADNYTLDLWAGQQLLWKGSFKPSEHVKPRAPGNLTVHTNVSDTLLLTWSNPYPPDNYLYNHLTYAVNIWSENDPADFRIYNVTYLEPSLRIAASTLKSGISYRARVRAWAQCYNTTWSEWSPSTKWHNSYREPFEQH

pKd: 9.22
Substance: IL-4 (from UniProt P05112)
